We go through 2 molecules from patent US20020028208A1 (TEXAS A AND M UNIVERSITY SYSTEM, published 2002).

The labels stand for the following.
B1: feline CD28, surface expressed on CD28-pSI transfected COS-7 cells (receptor)
chain: NKILVKQLPRLVVYNNEVNLSCKYTHNFFSKEFRASLYKGVDSAVEVCVVNGNYSHQPQFYSSTGFDCDGKLGNETVTFYLRNLFVNQTDIYFCKIEVMYPPPYIDNEKSNGTIIHVKEKHLCPAQLSPESSKPFWALVVVGGILGFYSLLATVALGACWMKTKRSRILQSDYMNMTPRRPGPTRRHYQPYAPARDFAAYRS
notes: also called feCD28; CD28 pSI transfected cells

Test [1] concerns the target T1, huCD80-Ig fusion protein (human, UniProt P33681 35-241).
T1 construct: Provided by P. Linsley, Bristol-Meyers Squibb; also called soluble CD80 receptor; soluble receptor for CD28; not shown: Ig part of the fusion
T1 sequence (looked up): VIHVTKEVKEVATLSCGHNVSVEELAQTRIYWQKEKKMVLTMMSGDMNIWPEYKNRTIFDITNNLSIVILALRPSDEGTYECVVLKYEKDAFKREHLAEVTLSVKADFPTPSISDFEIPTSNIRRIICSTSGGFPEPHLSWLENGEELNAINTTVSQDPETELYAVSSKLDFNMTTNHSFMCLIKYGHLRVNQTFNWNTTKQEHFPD
Briefly: competitive cell-cell adhesion assay: CD28-pSI COS-7 monolayer pre-incubated with CD80 Ig at 1 ug/ml for 30 min and washed before labeled CD80-pSI COS-7 cells were added. How it is done: (§1) Binding assays for transfected cells expressing feline CD80 and feline CD28 were performed after the protocol described in Linsley et al., 1994a. One day after transfection, CD28 expressing COS-7 cells were removed from T-75 flasks with trypsin-EDTA treatment. The cells were allowed to adhere in 24 well plates at a concentration of 1×10⁵ cells per ml. Two days later, the feCD80/pSI transfected COS-7 cells were removed from T-75 flasks with PBS/0.5 […] EDTA. These cells were then fluorescently labeled with a 5 μM solution of Calcein AM (Molecular Probes, Eugene, Oreg.) in sterile PBS/1% BSA for 30 min at 37° C. (Akeson and Woods, 1993). Mock transfected COS-7 cells were labeled in the same fashion. The labeled cells were then washed three times with DMEM plus 10% FCS to remove unincorporated label, counted, and added directly to the monolayer. The two cell populations were allowed to interact for 1 hr at 37° C. Nonadherent cells were removed by gently washing the monolayer 3 times with DMEM +10% FCS. Following the washing, the fluorescence of each of the wells was quantitated on a microplate fluorimeter. Fluorescence in wells containing transfected populations was compared to wells in which CD80 expressing cells were added to COS-7 cells transfected with pSI plasmid alone. […]

Test [2] addresses B1. Briefly: cell-cell adhesion assay at 1x10^6 labeled CD80-pSI COS-7 cells on a CD28-pSI COS-7 monolayer; still significantly higher at 5x10^5 cells, not distinguishable at 1x10^5 and 1x10^4. How it is done: as §1

As for B1, in test [1], the binding result is “binds”.

B2: feline CD80 (B7-1)-TAMU, surface expressed on feCD80/pSI transfected COS-7 cells (ligand)
chain: ASLFYFCSGIIQVNKTVEEVAVLSCDYNISTKELTEIRIYWQKDDEMVLAVMSGKVQVWPKYKNRTFTDVTDNHSIVIMALRLSDNGKYTCIIQKIEKGSYKVKHLTSVMLLVRADFPVPSITDLGNPSHNIKRIMCLTSGGFPKPHLSWLENEEELNAINTTVSQDPETELYTISSELDFNMTNNHSFLCLVKYGNLLVSQIFNWQKSEPQPSNNQLWIIILSSVVSGIVVITALTLRCLVHRPAARWRQREMGRARKWKRSHLST
notes: also called CD80-pSI transfected COS cells
As to B2, in test [2], the “fluorescence retained, fold over wells with mock transfected adherent cells” value was about 5 fold.
